These are literature values, as cited in article PMC8406260.

The series concerns the target SARS-CoV-2 main protease Mpro (Severe acute respiratory syndrome coronavirus 2) (UniProt P0DTD1).

The Kd is a measure of binding affinity in units of concentration. Consider “SARS-CoV-2 main protease Mpro (from UniProt P0DTD1)”, for which the Kd is 2000 nM.
